The values that follow come from article PMC4105210 (Nature communications, 2014).

The target of data set [1] is T1, HSV-1 UL31, full length (residues 1-306) (HSV-1 strain F, UniProt P10215 1-306).
T1 sequence: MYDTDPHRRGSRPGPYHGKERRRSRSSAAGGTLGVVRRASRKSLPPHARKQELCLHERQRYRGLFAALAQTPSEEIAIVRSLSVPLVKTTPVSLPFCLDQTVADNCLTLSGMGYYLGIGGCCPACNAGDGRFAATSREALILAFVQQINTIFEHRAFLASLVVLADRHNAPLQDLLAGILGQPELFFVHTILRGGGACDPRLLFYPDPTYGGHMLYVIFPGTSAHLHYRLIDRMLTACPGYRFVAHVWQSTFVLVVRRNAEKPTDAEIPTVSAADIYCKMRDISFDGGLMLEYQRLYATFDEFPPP
Put plainly: co-purification.

The target in data set [2] is T2, HSV-1 UL31Δ50 (residues 51-306) (HSV-1 strain F, UniProt P10215 51-306).
T2 sequence: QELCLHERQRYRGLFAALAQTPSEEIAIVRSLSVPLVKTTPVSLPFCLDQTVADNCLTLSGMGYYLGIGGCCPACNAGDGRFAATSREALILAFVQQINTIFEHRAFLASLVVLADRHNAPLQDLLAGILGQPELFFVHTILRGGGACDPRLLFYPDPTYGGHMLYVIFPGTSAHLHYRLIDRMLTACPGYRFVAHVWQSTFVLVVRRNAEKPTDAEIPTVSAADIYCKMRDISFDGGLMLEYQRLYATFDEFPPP
Put plainly: SEC.

The data set “cryo-EM structure” concerns the molecule itself. In words: cryo-EM structure.
The data set “cross-linking” concerns the molecule itself. Put plainly: cross-linking.
In data set [3] the target is T1, HSV-1 UL31, full length (residues 1-306). Put plainly: SEC. A general note: SEC sorts molecules by how far they enter the pores of the column.

Numbering of substitutions follows the chain as printed. In names and notes the source's numbering stands.

B1: HSV-1 UL34(1-220) (domain or fragment)
chain: MAGLGKPYTGHPGDAFEGLVQRIRLIVPSTLRGGDGEAGPYSPSSLPSRCAFQFHGHDGSDESFPIEYVLRLMNDWAEVPCNPYLRIQNTGVSVLFQGFFHRPHNAPGGAITPERTNVILGSTETTGLSLGDLDTIKGRLGLDARPMMASMWISCFVRMPRVQLAFRFMGPEDAGRTRRILCRAAEQAITRRRRTRRSREAYGAEAGLGVAGTGFRARGD
Consider B1, for which the binding result in data set [1] and in data set [2] was “binds” in each case.

B2: HSV-1 nuclear egress complex NEC220 (UL31 1-306 with UL34 1-220) (complex)
chain 1: T1 sequence
chain 2: B1 chain
What is called stoichiometry N is the number of molecules, sites or subunits per partner or assembly. As to B2, the “stoichiometry N” value in the data set “cryo-EM structure” came to 6.

B3: HSV-1 nuclear egress complex NEC220-DN (UL31 1-306 with UL34 1-220 D35A/E37A) (complex)
chain 1: T1 sequence
chain 2: B1 chain with D35A, E37A
For the molecule B3, the binding result in the data set “cross-linking” is on record as “binds”.

B4: HSV-1 UL34(1-185) (domain or fragment)
chain: MAGLGKPYTGHPGDAFEGLVQRIRLIVPSTLRGGDGEAGPYSPSSLPSRCAFQFHGHDGSDESFPIEYVLRLMNDWAEVPCNPYLRIQNTGVSVLFQGFFHRPHNAPGGAITPERTNVILGSTETTGLSLGDLDTIKGRLGLDARPMMASMWISCFVRMPRVQLAFRFMGPEDAGRTRRILCRAA
On to B4, for which the binding result in data set [3] and in data set [2] was “binds” throughout.
